Experimental data taken from publication PMC4862333 (The Journal of Cell Biology, 2016).

B1: His-Sumo-tagged Cab45 (recombinant) (natural protein, human, UniProt Q9BRK5 37-362, looked up)
chain: RPANHSSTRERVANREENEILPPDHLNGVKLEMDGHLNRGFHQEVFLGKDLGGFDEDAEPRRSRRKLMVIFSKVDVNTDRKISAKEMQRWIMEKTAEHFQEAMEESKTHFRAVDPDGDGHVSWDEYKVKFLASKGHSEKEVADAIRLNEELKVDEETQEVLENLKDRWYQADSPPADLLLTEEEFLSFLHPEHSRGMLRFMVKEIVRDLDQDGDKQLSVPEFISLPVGTVENQQGQDIDDNWVKDRKKEFEELIDSNHDGIVTAEELESYMDPMNEYNALNEAKQMIAVADENQNHHLEPEEVLKYSEFFTGSKLVDYARSVHEEF
B2: ATTO488-labeled recombinant Cab45 (natural protein, human, UniProt Q9BRK5 37-362, looked up)
chain: B1 chain
modifications: ATTO488 (NHS-ATTO488 label)

Legend:
native gel or EMSA = biological target: the molecule itself; experiment: native gel or EMSA
[1] = biological target: the molecule itself; experiment: in vitro oligomerization assay

| Protein | binding result (native gel or EMSA) | binding result [1] |
| --- | --- | --- |
| B1 | binds | – |
| B2 | – | binds |
